Earlier results, collected in article PMC6589385.

Biological target: His37 (UniProt position 37, IIGILHLILWI)
Assay: NMR
Conditions: Membrane-bound wild-type AM2 tetrameric channel

In the case of “Influenza A virus M2 protein (AM2) transmembrane domain, wild type (Influenza A virus)”, the pKa is listed as 5.9.
